Results on 167 variants are retold here after the RNAGym collection of RNA variant scans (doi:10.7554/elife.80360).

The chains are these.
B1: CPEB3 Ribozyme (parent)
chain: GGGGGCCACAGCAGAAGCGUUCACGUCGCGGCCCCUGUCAGAUUCUGGUGAAUCUGCGAAUUCUGCUGU

Variants of B1 are the subject of this series. As to the kind of experiment: self-cleavage, relative activity (ratio to wild type); higher = more cleavage; co-transcriptional.
On to G30U G65A, for which the self-cleavage is 0.203.

On to G30C U53A, for which the self-cleavage came out at 0.437.

As for G30C C33G, the self-cleavage was found to be 0.302.

G30C C33A: the self-cleavage is 0.248.

Turning to G30C U44A, the self-cleavage worked out at 0.594.

Turning to G30C U44G, the self-cleavage was found to be 0.549.

G30C U44C: the self-cleavage was found to be 0.466.

G30C U36C: the self-cleavage turned out to be 0.273.

Consider G30U G47C, for which the self-cleavage is 0.395.

Turning to G30U G47A, the self-cleavage stood at 0.436.

Regarding G30A G50U, the self-cleavage came to 0.856.

In the case of G30U C35U, the self-cleavage was determined as 0.292.

Regarding G30A U46G, the self-cleavage was determined as 0.888.

In the case of G30A U44G, the self-cleavage came out at 0.579.

Turning to G31A A52U, the self-cleavage was determined as 0.888.

For the variant G31A A52G, the self-cleavage turned out to be 0.907.

Consider G31C C54U, for which the self-cleavage turned out to be 0.308.

G30A U55A: the self-cleavage worked out at 0.638.

In the case of G30U U46G, the self-cleavage amounted to 0.441.

For G31A U38G, the self-cleavage came out at 0.245.

For G31A U38A, the self-cleavage came out at 0.726.

With G31A G37U, the self-cleavage worked out at 0.213.

With G31A U69C, the self-cleavage was 1.03.

As for G31A U69A, the self-cleavage was determined as 0.991.

Turning to G30C C63A, the self-cleavage was 0.292.

As to G31C C33U, the self-cleavage amounted to 0.45.

For G30C A42U, the self-cleavage was 0.41.

With G30U G50A, the self-cleavage came out at 0.335.

Take G30U G50C: the self-cleavage was 0.294.

For G30U G50U, the self-cleavage came out at 0.47.

On to G30U G41C, for which the self-cleavage amounted to 0.209.

Take G31A A59G: the self-cleavage was 0.811.

With G30C A51U, the self-cleavage came out at 0.61.

Turning to G30C G50U, the self-cleavage is 0.679.

Turning to G30C G50A, the self-cleavage came out at 0.621.

For G30C G50C, the self-cleavage is 0.536.

As for G30C C34G, the self-cleavage was found to be 0.259.

Turning to G30C C39G, the self-cleavage came to 0.403.

Regarding G30U C34A, the self-cleavage worked out at 0.259.

G30A G31U: the self-cleavage came out at 0.215.

As to G31A U55A, the self-cleavage is 0.662.

With G31A U55C, the self-cleavage amounted to 0.547.

For G31A U55G, the self-cleavage is 0.569.

G30C C32U: the self-cleavage came to 0.636.

Turning to G30C C32G, the self-cleavage worked out at 0.225.

Turning to G30A U36G, the self-cleavage turned out to be 0.166.

Consider G30A U36C, for which the self-cleavage is 0.449.

Take G30C G37C: the self-cleavage amounted to 0.204.

With G30C G37U, the self-cleavage was found to be 0.175.

As to G30C G37A, the self-cleavage is 0.146.

For the variant G30C G65A, the self-cleavage is 0.459.

For the variant G30C G65U, the self-cleavage was found to be 0.371.

G30C G41U: the self-cleavage stood at 0.336.

G30C G41C: the self-cleavage turned out to be 0.232.

In the case of G31A C35U, the self-cleavage amounted to 0.522.

As to G31A C35A, the self-cleavage was determined as 0.232.

Regarding G30U G37U, the self-cleavage is 0.166.

As for G31A A42C, the self-cleavage was found to be 0.601.

As for G31A C33G, the self-cleavage was 0.282.

Regarding G30C G31U, the self-cleavage was found to be 0.224.

Turning to G30U C32G, the self-cleavage is 0.216.

With G30U C32U, the self-cleavage came to 0.181.

For the variant G30U G68U, the self-cleavage is 0.78.

Take G30U G68A: the self-cleavage is 0.88.

As for G31C C32G, the self-cleavage turned out to be 0.249.

Regarding G31A G48A, the self-cleavage is 0.945.

With G31A G48C, the self-cleavage worked out at 0.9.

In the case of G30U U61G, the self-cleavage amounted to 0.215.

For the variant G30U U61A, the self-cleavage amounted to 0.177.

Regarding G31C C35G, the self-cleavage was 0.141.

Turning to G31A G47A, the self-cleavage worked out at 0.897.

As to G31A G47C, the self-cleavage was 0.921.

On to G31A C63A, for which the self-cleavage was determined as 0.32.

For the variant G30A G37A, the self-cleavage stood at 0.23.

Take G30A G37U: the self-cleavage came to 0.196.

On to G30A G37C, for which the self-cleavage amounted to 0.19.

G31A G58C: the self-cleavage was 0.812.

G31A G58U: the self-cleavage is 0.974.

Consider G30U U67G, for which the self-cleavage is 0.724.

Take G30U U67C: the self-cleavage is 0.624.

On to G30U C63U, for which the self-cleavage is 0.279.

Turning to G31C A51U, the self-cleavage turned out to be 0.237.

As for G31C A51C, the self-cleavage came to 0.161.

As for G31C A51G, the self-cleavage was determined as 0.364.

With G31A C34U, the self-cleavage amounted to 0.605.

As to G31A C34G, the self-cleavage was 0.262.

As for G30C U46C, the self-cleavage amounted to 0.613.

Consider G30C U46A, for which the self-cleavage came to 0.706.

In the case of G30A G48A, the self-cleavage amounted to 0.951.

Turning to G30A U61G, the self-cleavage came out at 0.447.

As for G30A U61C, the self-cleavage stood at 0.39.

With G30U A42G, the self-cleavage was 0.27.

As for G30A U49A, the self-cleavage is 0.89.

Take G30C U43A: the self-cleavage is 0.438.

Consider G31C A40U, for which the self-cleavage amounted to 0.165.

With G31C A40C, the self-cleavage was found to be 0.203.

Consider G30U C57G, for which the self-cleavage was 0.186.

Take G30A G68U: the self-cleavage came to 1.

As to G30A G68C, the self-cleavage turned out to be 1.01.

Consider G30A U67C, for which the self-cleavage is 0.959.

Turning to G30C A40U, the self-cleavage is 0.296.

As to G31A C57G, the self-cleavage was found to be 0.254.

Regarding G30U A52U, the self-cleavage was determined as 0.342.

As for G31A U46C, the self-cleavage turned out to be 0.9.

On to G31A U46G, for which the self-cleavage is 0.962.

G30C U61A: the self-cleavage came out at 0.258.

Take G30C U61C: the self-cleavage came to 0.242.

As for G30U U64C, the self-cleavage turned out to be 0.353.

For the variant G30C G56C, the self-cleavage was determined as 0.236.

With G30C G56U, the self-cleavage is 0.404.

On to G30A G65U, for which the self-cleavage worked out at 0.436.

Regarding G30A G41U, the self-cleavage is 0.341.

For G31A U64A, the self-cleavage came out at 0.511.

G31A U64C: the self-cleavage came to 0.757.

As to G30U C45A, the self-cleavage was found to be 0.335.

Consider G30U C45U, for which the self-cleavage was 0.329.

For G30U A60G, the self-cleavage was found to be 0.176.

Take G30A G58A: the self-cleavage was determined as 0.682.

On to G30A G58U, for which the self-cleavage came to 0.896.

Turning to G30A G58C, the self-cleavage is 0.858.

On to G30C G48U, for which the self-cleavage was 0.706.

Take G30U G56U: the self-cleavage was 0.231.

As to G31A C32G, the self-cleavage is 0.259.

Regarding G31A C66A, the self-cleavage was 0.7.

Turning to G31A C66U, the self-cleavage was 0.913.

As to G31A G65C, the self-cleavage stood at 0.539.

G31A G65U: the self-cleavage is 0.594.

As to G31A G65A, the self-cleavage stood at 0.711.

As to G30C U62C, the self-cleavage is 0.424.

Regarding G31C A59G, the self-cleavage is 0.255.

Consider G31C C34A, for which the self-cleavage is 0.341.

Turning to G31A U61C, the self-cleavage is 0.327.

With G31A U53G, the self-cleavage stood at 0.573.

Take G30C C35A: the self-cleavage was determined as 0.254.

On to G30C C35U, for which the self-cleavage was determined as 0.398.

Turning to G31A C39A, the self-cleavage was determined as 0.494.

Regarding G30A U69G, the self-cleavage came out at 1.01.

For G30U A40C, the self-cleavage amounted to 0.192.

Consider G30U A40U, for which the self-cleavage came to 0.214.

On to G31C A42C, for which the self-cleavage amounted to 0.227.

G31C G41U: the self-cleavage is 0.217.

G31A A60C: the self-cleavage is 0.304.

On to G31A A60U, for which the self-cleavage came out at 0.322.

Consider G30A U38A, for which the self-cleavage was 0.621.

Turning to G31A U67G, the self-cleavage was found to be 1.01.

For the variant G30C U64C, the self-cleavage came out at 0.478.

G30C U64A: the self-cleavage is 0.467.

On to G30C U64G, for which the self-cleavage worked out at 0.455.

In the case of G30A U64A, the self-cleavage was 0.634.

For G30A U64G, the self-cleavage worked out at 0.624.

For the variant G30A G47U, the self-cleavage was 0.939.

Consider G30A G47A, for which the self-cleavage came to 0.916.

As to G30U G31U, the self-cleavage turned out to be 0.18.

With G31C C57A, the self-cleavage stood at 0.163.

In the case of G31C C57U, the self-cleavage was 0.184.

Consider G30C C57U, for which the self-cleavage worked out at 0.244.

Take G30C C57A: the self-cleavage is 0.302.

As for G30C C54A, the self-cleavage was found to be 0.346.

Turning to G30U U69C, the self-cleavage was determined as 0.865.

As for G30U U69G, the self-cleavage worked out at 0.792.

As to G30U U62A, the self-cleavage came out at 0.2.

Take G30C U67C: the self-cleavage came to 0.883.

Turning to G30C U67G, the self-cleavage is 0.94.

As to G31A G41A, the self-cleavage was determined as 0.525.

As to G30C C45G, the self-cleavage stood at 0.578.

With G30A U62A, the self-cleavage was determined as 0.445.

In the case of G30A U62G, the self-cleavage worked out at 0.413.
